For series [1], the target named is T1, MBP-cRAG1 (core RAG1);cRAG2 (core RAG2) (mouse?;mouse?, UniProt P15919;P21784 384-1040;1-383, |).
T1 sequence 1: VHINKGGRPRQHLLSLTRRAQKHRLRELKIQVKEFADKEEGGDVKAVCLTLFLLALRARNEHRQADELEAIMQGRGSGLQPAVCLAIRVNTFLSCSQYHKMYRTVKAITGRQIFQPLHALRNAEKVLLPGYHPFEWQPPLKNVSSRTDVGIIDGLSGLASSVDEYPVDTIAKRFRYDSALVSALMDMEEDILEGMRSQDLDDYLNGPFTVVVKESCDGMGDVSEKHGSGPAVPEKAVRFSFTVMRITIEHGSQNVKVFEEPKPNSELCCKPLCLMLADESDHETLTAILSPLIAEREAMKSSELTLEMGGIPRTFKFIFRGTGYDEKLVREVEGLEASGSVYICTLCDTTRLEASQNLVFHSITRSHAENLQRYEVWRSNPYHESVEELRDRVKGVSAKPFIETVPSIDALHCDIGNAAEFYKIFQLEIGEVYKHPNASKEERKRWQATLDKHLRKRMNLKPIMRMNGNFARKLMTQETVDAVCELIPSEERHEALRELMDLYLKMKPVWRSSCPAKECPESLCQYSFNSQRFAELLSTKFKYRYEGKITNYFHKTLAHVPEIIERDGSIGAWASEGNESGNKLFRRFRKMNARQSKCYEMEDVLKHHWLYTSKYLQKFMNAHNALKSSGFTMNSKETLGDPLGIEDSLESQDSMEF
T1 sequence 2: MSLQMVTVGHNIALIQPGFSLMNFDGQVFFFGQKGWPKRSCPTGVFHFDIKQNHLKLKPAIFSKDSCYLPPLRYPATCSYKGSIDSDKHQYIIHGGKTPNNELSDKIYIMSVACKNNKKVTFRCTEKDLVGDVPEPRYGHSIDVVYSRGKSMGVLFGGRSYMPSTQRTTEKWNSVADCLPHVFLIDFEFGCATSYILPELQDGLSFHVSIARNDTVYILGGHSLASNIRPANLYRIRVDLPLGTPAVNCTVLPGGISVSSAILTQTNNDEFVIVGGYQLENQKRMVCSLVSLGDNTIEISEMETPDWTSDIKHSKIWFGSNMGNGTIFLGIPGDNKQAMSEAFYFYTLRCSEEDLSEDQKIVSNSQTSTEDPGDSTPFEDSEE
As to the kind of experiment: EMSA; cRAG buffer; NBD EMSA: 10 mM Tris-HCl pH 7.5, 33 mM KCl, 5 mM CaCl2, 2 mM DTT, 0.1 mg/ml BSA, 6% glycerol, 15 min 30 C; cRAG EMSA: 22.5 mM MOPS-KOH pH 7.0, 20% DMSO, 2.2 mM. The settings on record: protein: recombinant;recombinant, tags: MBP;MBP, chain copies: 2;2.

The target in series [2] is T2, NBD (nonamer binding domain of RAG1) (mouse, UniProt P15919 384-461).
T2 sequence: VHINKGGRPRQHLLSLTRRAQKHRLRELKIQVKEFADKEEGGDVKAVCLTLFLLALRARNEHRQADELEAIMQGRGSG
As to the kind of experiment: EMSA; 5 mM Ca2+; NBD EMSA: 10 mM Tris-HCl pH 7.5, 33 mM KCl, 5 mM CaCl2, 2 mM DTT, 0.1 mg/ml BSA, 6% glycerol, 15 min 30 C; cRAG EMSA: 22.5 mM MOPS-KOH pH 7.0, 20% DMSO, 2.2 mM. The settings on record: protein: recombinant, tags: N-terminal His6 (pET28a).

The target in series [3] is T2, NBD (nonamer binding domain of RAG1). As to the kind of experiment: BLI; 1x PBS, 30 C, 1:1 fit; NBD EMSA: 10 mM Tris-HCl pH 7.5, 33 mM KCl, 5 mM CaCl2, 2 mM DTT, 0.1 mg/ml BSA, 6% glycerol, 15 min 30 C; cRAG EMSA: 22.5 mM MOPS-KOH pH 7.0, 20% DMSO, 2.2 mM. The settings on record: protein: recombinant; tags: N-terminal His6 (pET28a); label: 5' biotin.
Where [4] appears, read: label: 5' 32P on NM32, 6 nt T/T bubble, blunt ends.
The mark [5] stands for this setting: label: 5' 32P, 6 nt A/A bubble, blunt ends.
Where [6] appears, read: label: 5' 32P on AKN1, 5' overhang 1 nt at both ends.
Where [7] appears, read: label: 5' 32P, 6 nt C/C bubble, blunt ends.
Where [8] appears, read: label: 5' 32P, 6 nt T/T bubble, blunt ends.
Where [9] appears, read: label: 5' 32P, 6 nt G/G bubble, blunt ends, intermolecular G4 in K+ buffer.

Positions count from the first letter of the chain named.

B1: T/T bubble with nonamer (VII, NM32/NM33) (dsDNA)
DNA 1: GACCTGAGGGCGAGCTTTTTTCGAGTAACTTAAACAAAAACCCTGCT
DNA 2: AGCAGGGTTTTTGTTTAAGTTACTCGTTTTTTGCTCGCCCTCAGGTC
On to B1, for which the binding result in series [1] (setting [4]) and in series [2] (setting [4]) was “binds” each time.

B2: poly T 22 (MS100) (ssDNA)
DNA: TTTTTTTTTTTTTTTTTTTTTT
With B2, the binding result in series [2] (label: 5' 32P) is “no binding”.

B3: A/T 28 bp (MS101/DR41) (dsDNA)
DNA 1: TTTTTTTTTTTTTTTTTTTTTTTTTTTT
DNA 2: AAAAAAAAAAAAAAAAAAAAAAAAAAAA
Consider B3, for which the binding result in series [2] (label: 5' 32P, blunt) is on record as “binds”.

B4: A/T 16 bp (MS102/DR39) (dsDNA)
DNA 1: TTTTTTTTTTTTTTTT
DNA 2: AAAAAAAAAAAAAAAA
In the case of B4, in series [2] (label: 5' 32P, blunt), the binding result is recorded as “no binding”.

B5: A/T 22 bp (MS100/DR40) (dsDNA)
DNA 1: TTTTTTTTTTTTTTTTTTTTTT
DNA 2: AAAAAAAAAAAAAAAAAAAAAA
For the molecule B5, the binding result in series [2] (label: 5' 32P, blunt) is on record as “no binding”.

B6: XXVII, 5 T at 3' end (MS12) (ssDNA)
DNA: GAGTCTGATCTTACCTCTTAACTTCGCTACTTTTT
On to B6, for which, in series [2] (label: 5' 32P), the binding result is reported as “binds”.

B7: XXVIII, 10 T at 3' end (MS14) (ssDNA)
DNA: B6 DNA with G26T, C27T, A29T, C30T
B7: the binding result in series [2] (label: 5' 32P) is “binds”.

B8: XXXIII, ssDNA lacking T stretch (ssDNA)
DNA: CTGTTAAGTTACTCGAAAAAAGCTCGCCCTCAGGTC
Turning to B8, the binding result in series [2] (label: 5' 32P) is “no binding”.

B9: A/A bubble heteroduplex (AKN18/AKN45) (dsDNA)
DNA 1: B8 DNA
DNA 2: GACCTGAGGGCGAGCAAAAAACGAGTAACTTAACAG
With B9, the binding result in series [1] (setting [5]) and in series [2] (setting [5]) was “no binding” in each case.

B10: poly T 28 (MS101) (ssDNA)
DNA: TTTTTTTTTTTTTTTTTTTTTTTTTTTT
Take B10: the binding result in series [2] (label: 5' 32P) is “binds”.

B11: 12RSS (I, AKN1/AKN2) (dsDNA)
DNA 1: GATCAGCTGATAGCTACCACAGTGCTACAGACTGGAACAAAAACCCTGCT
DNA 2: TAGCAGGGTTTTTGTTCCAGTCTGTAGCACTGTGGTAGCTATCAGCTGAT
Regarding B11, the binding result in series [1] (setting [6]) and in series [2] (setting [6]) was “binds” each time.

B12: biotinylated poly T 35 (ssDNA)
DNA: TTTTTTTTTTTTTTTTTTTTTTTTTTTTTTTTTTT
Consider B12, for which the Kd in series [3] is 450 nM.

B13: ss poly T 35 (MS3) (ssDNA)
DNA: B12 DNA
For B13, in series [1] (label: 5' 32P), the binding result is listed as “no binding”.

B14: C/C bubble heteroduplex (AKN46/AKN20) (dsDNA)
DNA 1: GACCTGAGGGCGAGCCCCCCCCGAGTAACTTAACAG
DNA 2: CTGTTAAGTTACTCGCCCCCCGCTCGCCCTCAGGTC
In the case of B14, the results for the binding result in series [1] (setting [7]) and in series [2] (setting [7]) were “binds” and “no binding”, respectively.

B15: XXIX, 15 T at 3' end (MS16) (ssDNA)
DNA: GAGTCTGATCTTACCTCTTATTTTTTTTTTTTTTT
B15: the binding result in series [2] (label: 5' 32P) is given as “binds”.

B16: XXX, 20 T at 3' end (MS18) (ssDNA)
DNA: B15 DNA with C17T, A20T
Take B16: in series [2] (label: 5' 32P), the binding result is recorded as “binds”.

B17: A/T 10 bp (MS103/DR38) (dsDNA)
DNA 1: TTTTTTTTTT
DNA 2: AAAAAAAAAA
On to B17, for which the binding result in series [2] (label: 5' 32P, blunt) is reported as “no binding”.

B18: poly T 10 (MS103) (ssDNA)
DNA: TTTTTTTTTT
Regarding B18, in series [2] (label: 5' 32P), the binding result is given as “no binding”.

B19: poly T 16 (MS102) (ssDNA)
DNA: TTTTTTTTTTTTTTTT
Take B19: the binding result in series [2] (label: 5' 32P) is given as “no binding”.

B20: poly T 75 (MS6) (ssDNA)
DNA: TTTTTTTTTTTTTTTTTTTTTTTTTTTTTTTTTTTTTTTTTTTTTTTTTTTTTTTTTTTTTTTTTTTTTTTTTT
Regarding B20, the binding result in series [2] (label: 5' 32P) was “binds”.

B21: random dsDNA MN37/MN38 (XV or XVI) (dsDNA)
DNA 1: CCTCTCCCCCTCCCCTCCCCTCCCTCGCGC
DNA 2: GCGCGAGGGAGGGGAGGGGAGGGGGAGAGG
Turning to B21, the binding result in series [2] (label: 5' 32P on MN37, blunt) is reported as “no binding”.

B22: T/T bubble heteroduplex (AKN11/SCR252) (dsDNA)
DNA 1: GACCTGAGGGCGAGCTTTTTTCGAGTAACTTAACAG
DNA 2: CTGTTAAGTTACTCGTTTTTTGCTCGCCCTCAGGTC
Take B22: the binding result in series [1] (setting [8]) is given as “binds”; in series [2] (setting [8]) it was “no binding”.

B23: random dsDNA MN45/MN46 (XV or XVI) (dsDNA)
DNA 1: AGAAGGGGGAGGGGAGGGAGAGAGGGGGCGCCG
DNA 2: CGGCGCCCCCTCTCTCCCTCCCCTCCCCCTTCT
On to B23, for which, in series [2] (label: 5' 32P on MN45, blunt), the binding result is given as “no binding”.

B24: G/G bubble heteroduplex (V, AKN47/AKN48) (dsDNA)
DNA 1: GACCTGAGGGCGAGCGGGGGGCGAGTAACTTAACAG
DNA 2: CTGTTAAGTTACTCGGGGGGGGCTCGCCCTCAGGTC
As to B24, the binding result in series [1] (setting [9]) and in series [2] (setting [9]) was “no binding” throughout.

B25: XXXI, 10 T at 5' end (MS22) (ssDNA)
DNA: TTTTTTTTTTGAGTCGGATCTTACGTCGTAACTTCGCTAC
In the case of B25, the binding result in series [2] (label: 5' 32P) was “binds”.

Source of the values: PMC4705477, “Biochemical Characterization of Nonamer Binding Domain of RAG1 Reveals its Thymine Preference with Respect to Length and Position”.
